From PMC10397247

T1: O7-bP
T1 chain: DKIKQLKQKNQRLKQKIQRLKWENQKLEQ

T2: O6-bP
T2 chain: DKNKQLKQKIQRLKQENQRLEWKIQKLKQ

T3: O8-bP
T3 chain: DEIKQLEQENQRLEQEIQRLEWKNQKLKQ

T4: O9-bP
T4 chain: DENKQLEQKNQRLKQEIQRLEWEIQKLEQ

T5: O5-bP
T5 chain: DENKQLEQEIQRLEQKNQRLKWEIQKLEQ


Legend:
Experiment in all cases: two-hybrid library CCNG1;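 further: natural log of median RNA to DNA barcode read ratio; higher means stronger binding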
O7-bP = target: T1, O7-bP
O6-bP = target: T2, O6-bP
O8-bP = target: T3, O8-bP
O9-bP = target: T4, O9-bP
O5-bP = target: T5, O5-bP

| interaction score (O7-bP) | interaction score (O6-bP) | interaction score (O8-bP) | interaction score (O9-bP) | interaction score (O5-bP) | Binder |
| --- | --- | --- | --- | --- | --- |
| -0.618 | -0.702 | -2.38 | -0.21 | – | DKNKQLKQKIQRLKQENQRLEWKIQKLKQ [O6-bP] |
| -1.43 | – | 1.3 | -1.09 | – | DKIKQLKQKNQRLKQKIQRLKWENQKLEQ [O7-bP] |
| -1.28 | 2.35 | -0.837 | -1.33 | -1.57 | DENKQLEQEIQRLEQKNQRLKWEIQKLEQ [O5-bP] |
